# Legend:
# [1] = assay type: in vivo; details: subject 03; 1.5 g/m2 on day 17 after high-dose steroids without improvement
# [2] = target: BCMA (B-cell maturation antigen) on the surface of cell lines (UniProt Q02223); experiment: flow cytometry on HBL-1 cells; Quantum Simply Cellular quantification kit
# [3] = target: BCMA (B-cell maturation antigen) on the surface of cell lines (UniProt Q02223); experiment: flow cytometry on SuDHL-6 cells; Quantum Simply Cellular quantification kit
# BCMA (B-cell maturation antigen) on the surface of cell lines, sequence (Q02223 whole entry): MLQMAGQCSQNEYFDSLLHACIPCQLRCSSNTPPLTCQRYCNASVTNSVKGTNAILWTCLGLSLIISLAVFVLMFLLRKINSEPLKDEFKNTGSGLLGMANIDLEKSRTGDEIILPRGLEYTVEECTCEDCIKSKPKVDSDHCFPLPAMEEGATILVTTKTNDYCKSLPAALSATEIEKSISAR
antibody binding capacity (ABC) [2],antibody binding capacity (ABC) [3],Molecule,time to rapid neurologic improvement of PRES-like grade 4 neurotoxicity [1] [hours]
–,–,O=P1(N(CCCl)CCCl)NCCCO1 (stereo not drawn) [cyclophosphamide],≤ 48
> 5000,> 5000,"PE-labeled anti-BCMA antibody (Biolegend, cat #357504)",–
